Assay results reported in article PMC2291454, “Functional characterisation of the TSC1–TSC2 complex to assess multiple TSC2 variants identified in single families affected by tuberous sclerosis complex” (BMC Medical Genetics, 2008).

T1: TSC1 (human, UniProt Q92574 1-1164)
T1 sequence (looked up): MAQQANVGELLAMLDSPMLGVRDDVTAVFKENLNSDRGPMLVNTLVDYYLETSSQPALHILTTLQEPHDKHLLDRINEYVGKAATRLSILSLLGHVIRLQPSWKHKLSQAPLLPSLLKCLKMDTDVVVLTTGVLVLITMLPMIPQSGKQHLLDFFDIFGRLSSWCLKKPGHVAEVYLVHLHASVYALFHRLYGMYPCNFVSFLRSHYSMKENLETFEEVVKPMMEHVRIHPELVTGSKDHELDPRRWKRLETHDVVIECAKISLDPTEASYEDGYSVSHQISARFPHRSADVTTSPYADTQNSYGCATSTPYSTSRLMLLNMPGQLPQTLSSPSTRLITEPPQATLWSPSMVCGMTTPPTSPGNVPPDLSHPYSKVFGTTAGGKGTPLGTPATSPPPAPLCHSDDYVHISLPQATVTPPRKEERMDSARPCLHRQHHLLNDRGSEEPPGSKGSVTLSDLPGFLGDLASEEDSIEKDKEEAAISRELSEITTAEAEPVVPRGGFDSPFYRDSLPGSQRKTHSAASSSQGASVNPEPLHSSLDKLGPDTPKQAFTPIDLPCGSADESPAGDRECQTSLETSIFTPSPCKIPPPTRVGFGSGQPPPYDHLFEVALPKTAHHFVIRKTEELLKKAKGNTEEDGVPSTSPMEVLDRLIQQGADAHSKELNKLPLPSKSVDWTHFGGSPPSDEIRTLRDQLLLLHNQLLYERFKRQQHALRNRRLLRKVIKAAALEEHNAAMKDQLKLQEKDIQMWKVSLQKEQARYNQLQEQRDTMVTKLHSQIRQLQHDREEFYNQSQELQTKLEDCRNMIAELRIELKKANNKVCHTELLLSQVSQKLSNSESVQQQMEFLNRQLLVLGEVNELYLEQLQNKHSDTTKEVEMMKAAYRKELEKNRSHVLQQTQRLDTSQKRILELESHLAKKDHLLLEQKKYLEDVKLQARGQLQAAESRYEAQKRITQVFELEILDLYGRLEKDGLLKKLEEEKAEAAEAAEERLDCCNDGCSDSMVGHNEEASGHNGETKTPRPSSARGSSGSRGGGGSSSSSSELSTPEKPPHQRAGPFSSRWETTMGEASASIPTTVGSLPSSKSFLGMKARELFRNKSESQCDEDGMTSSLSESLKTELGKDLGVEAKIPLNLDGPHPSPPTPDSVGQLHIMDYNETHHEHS


Molecular target: T1, TSC1
Experiment: cell-based or functional assay

| in vitro rheb GAP activity of the immunoprecipitated TSC1–TSC2 complex: rheb-bound GDP/GTP ratio after 90 minutes | in vitro rheb GAP activity of the immunoprecipitated TSC1–TSC2 variant complex: rheb-bound GDP/GTP ratio after 90 minutes | Binder |
| --- | --- | --- |
| 1.4 |  | wild-type TSC2 (natural protein) not shown |
|  | 0.9 | TSC2 I820del variant (natural protein) not shown |
